Assay results as given in patent US20130150297A1 (KAI PHARMACEUTICALS, published 2013).
Square brackets hold non-standard residues; d marks the D form. Ends that are not written are not given here.

T1: human calcium-sensing receptor (CaSR) (human, UniProt P41180 20-1078)
T1 sequence (looked up): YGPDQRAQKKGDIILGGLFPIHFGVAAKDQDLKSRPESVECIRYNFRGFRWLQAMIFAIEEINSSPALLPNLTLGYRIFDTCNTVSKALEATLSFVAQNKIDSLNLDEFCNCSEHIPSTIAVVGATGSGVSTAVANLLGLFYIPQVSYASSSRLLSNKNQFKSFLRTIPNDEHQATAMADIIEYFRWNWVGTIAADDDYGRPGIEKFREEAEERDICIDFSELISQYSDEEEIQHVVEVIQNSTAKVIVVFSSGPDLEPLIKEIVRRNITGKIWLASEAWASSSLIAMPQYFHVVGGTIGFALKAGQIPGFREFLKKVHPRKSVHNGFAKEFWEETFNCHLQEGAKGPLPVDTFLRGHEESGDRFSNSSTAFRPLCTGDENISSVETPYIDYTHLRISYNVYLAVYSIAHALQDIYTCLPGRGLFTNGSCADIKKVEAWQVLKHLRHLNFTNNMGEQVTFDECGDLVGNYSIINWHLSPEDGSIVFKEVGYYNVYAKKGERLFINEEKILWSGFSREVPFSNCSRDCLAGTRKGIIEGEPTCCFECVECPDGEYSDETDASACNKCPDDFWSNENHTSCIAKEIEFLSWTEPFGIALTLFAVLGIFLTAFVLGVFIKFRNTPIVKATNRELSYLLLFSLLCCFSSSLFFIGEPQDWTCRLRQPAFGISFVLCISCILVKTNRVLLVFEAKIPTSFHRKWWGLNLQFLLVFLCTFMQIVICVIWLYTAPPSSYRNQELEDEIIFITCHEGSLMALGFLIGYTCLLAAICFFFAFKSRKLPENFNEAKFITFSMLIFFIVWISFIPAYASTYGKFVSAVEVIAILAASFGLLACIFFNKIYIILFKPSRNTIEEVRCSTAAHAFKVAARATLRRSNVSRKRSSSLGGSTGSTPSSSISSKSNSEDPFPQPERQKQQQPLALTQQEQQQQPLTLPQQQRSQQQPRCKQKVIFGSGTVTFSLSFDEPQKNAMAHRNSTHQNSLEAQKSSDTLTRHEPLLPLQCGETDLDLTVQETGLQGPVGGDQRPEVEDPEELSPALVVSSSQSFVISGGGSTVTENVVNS

B1: (SEQ ID NO: 45) (SEQ ID NO: 47) conjugate, structure given only as drawing CHEM-US-00001 (peptide)
peptide 1: CHDAPIGYD
peptide 2: CYGRKKRRQRRR
modifications: cysteine pairing not given here; also: further groups not given here
B2: Ac-cygrkkrrqrrr-NH2 (peptide)
peptide: XXXXXXXXXXXX
modifications: N-terminal acetyl; C-terminal amide; printed in lower case (D-amino acids; glycine is achiral)
B3: Ac-c(C)arrrar-NH2 (peptide)
peptide: XXXXXXX
modifications: N-terminal acetyl; C-terminal amide; all seven residues D-amino acids; D-Cys 1 linked by a disulfide bond to an L-Cys residue
B4: (SEQ ID NO: 46) (SEQ ID NO: 47) conjugate, structure given only as drawing CHEM-US-00002 (peptide)
peptide 1: CPDYHDAGI
peptide 2: CYGRKKRRQRRR
modifications: cysteine pairing not given here; also: further groups not given here
B5: Ac-bAla-crrrrrr-NH2 (peptide)
peptide: XXXXXXXX
modifications: N-terminal acetylated beta-alanine; C-terminal amide; Cys and Arg residues are D-amino acids
B6: Ac-c(GS)rrrrrr-NH2 (peptide)
peptide: XXXXXXX
modifications: N-terminal acetyl; C-terminal amide; all residues D-amino acids; oxidized glutathione (GS) attached to the side chain of D-Cys 1
B7: Ac-c(Ac-C)arrrar-NH2 (peptide)
peptide: XXXXXXX
modifications: not fully specified; N-terminal acetyl; C-terminal amide; all seven residues D-amino acids; N-acetyl-L-Cys attached to the side chain of D-Cys 1
B8: Ac-c(Mpa)arrrar-NH2 (peptide)
peptide: XXXXXXX
modifications: N-terminal acetyl; C-terminal amide; all residues D-amino acids; mercaptopropionic acid (Mpa) attached to the side chain of D-Cys 1
B9: Ac-c(PEG5-C)rrrrrr-NH2 (peptide)
peptide: XXXXXXX
modifications: N-terminal acetyl; C-terminal amide; all residues D-amino acids; L-Cys carrying a 5 kDa polyethylene glycol (PEG5-C) attached to the side chain of D-Cys 1
B10: Ac-C(C)arrrar-NH2 (peptide)
peptide: XXXXXXX
modifications: not fully specified; N-terminal acetyl; C-terminal amide; L-Cys 1 linked by a disulfide bond to an L-Cys residue; residues 2-7 D-amino acids
B11: c(C)arrrar-NH2 (peptide)
peptide: XXXXXXX
modifications: no N-terminal cap; C-terminal amide; all seven residues D-amino acids; D-Cys 1 linked to an L-Cys residue
B12: Ac-bAla-c(C)arrrar-NH2 (peptide)
peptide: XXXXXXXX
modifications: not fully specified; N-terminal acetylated beta-alanine; C-terminal amide; c, a, r residues D-amino acids; D-Cys linked to an L-Cys residue
B13: Ac-CYGRKKRRQRRR-NH2 (peptide)
peptide: Ac-CYGRKKRRQRRR-NH2
B14: Ac-cArrrAr-NH2 (peptide)
peptide: XAXXXAX
modifications: N-terminal acetyl; C-terminal amide; D-amino acids except L-Ala 2 and L-Ala 6
B15: Ac-CaRrRaR-NH2 (peptide)
peptide: CXRXRXR
modifications: N-terminal acetyl; C-terminal amide; L-Cys 1, D-Ala 2, L-Arg 3, D-Arg 4, L-Arg 5, D-Ala 6, L-Arg 7
B16: Ac-carrrar-OH (peptide)
peptide: XXXXXXX
modifications: N-terminal acetyl; free C-terminal acid (-OH); all residues D-amino acids
B17: Ac-YGRKKRRQRRR-NH2 (peptide)
peptide: Ac-YGRKKRRQRRR-NH2
B18: Ac-CARRRAR-NH2 (peptide)
peptide: Ac-CARRRAR-NH2
B19: Ac-caaarrrrrr-NH2 (peptide)
peptide: Ac-[dC][dA][dA][dA][dR][dR][dR][dR][dR][dR]-NH2
SMILES: CC(=O)N[C@H](CS)C(=O)N[C@H](C)C(=O)N[C@H](C)C(=O)N[C@H](C)C(=O)N[C@H](CCCNC(=N)N)C(=O)N[C@H](CCCNC(=N)N)C(=O)N[C@H](CCCNC(=N)N)C(=O)N[C@H](CCCNC(=N)N)C(=O)N[C@H](CCCNC(=N)N)C(=O)N[C@H](CCCNC(=N)N)C(N)=O
B20: crrrrrr-NH2 (peptide)
peptide: XXXXXXX
modifications: no N-terminal cap; C-terminal amide; all residues D-amino acids
B21: Ac-dHcy rrrrrr-NH2 (peptide)
peptide: XXXXXXX
modifications: N-terminal acetyl; C-terminal amide; residue 1 is D-homocysteine (dHcy); residues 2-7 D-Arg
B22: Ac-c(Benzoyl)rrrrrr-NH2 (peptide)
peptide: XXXXXXX
modifications: N-terminal acetyl; C-terminal amide; all residues D-amino acids; benzoyl attached to the side chain of D-Cys 1
B23: Ac-c(acetyl)rrrrrr-NH2 (peptide)
peptide: XXXXXXX
modifications: N-terminal acetyl; C-terminal amide; all residues D-amino acids; acetyl attached to the side chain of D-Cys 1
B24: Ac-crrrr-NH2 (peptide)
peptide: XXXXX
modifications: N-terminal acetyl; C-terminal amide; all residues D-amino acids
B25: Ac-cGrrrGr-NH2 (peptide)
peptide: XGXXXGX
modifications: N-terminal acetyl; C-terminal amide; D-amino acids except Gly 2 and Gly 6

target: T1, human calcium-sensing receptor (CaSR); experiment: cell-based or functional assay

Binder | EC50 (µM), CaSR in vitro assay (IP1 production)
B1 | 21 µM
B2 | 2 µM
B3 | 10 µM
B4 | 21 µM
B5 | 1 µM
B6 | 7.8 µM
B7 | 21 µM
B8 | 21 µM
B9 | 0.58 µM
B10 | 2.5 µM
B11 | 3.1 µM
B12 | 2.6 µM
B13 | 4.5 µM
B14 | > 1000 µM
B15 | 5.6 µM
B16 | 31 µM
B17 | 16 µM
B18 | 58 µM
B19 | 4.6 µM
B20 | 1.1 µM
B21 | 2 µM
B22 | 3.6 µM
B23 | 4.1 µM
B24 | 16 µM

target: T1, human calcium-sensing receptor (CaSR); experiment: cell-based or functional assay; remark: another data set of the same source

Binder | decrease in potency relative to Ac-carrrar-NH2 (SEQ ID NO:26) | difference in potency relative to Ac-carrrar-NH2 (SEQ ID NO:26) | shift in potency in HEK-293 in vitro cell assay (4 versus 5 arginine subunits) | reduction in potency relative to Ac-carrrar-NH2 (SEQ ID NO:26)
B14 | > 600 fold |  |  | 
B15 |  | < 4 fold |  | 
B24 |  |  | > 10 fold | 
B25 |  |  |  | < 8 fold
